B1: Lon protease homolog, mitochondrial (Homo sapiens), P36776 (parent)
chain: MAASTGYVRLWGAARCWVLRRPMLAAAGGRVPTAAGAWLLRGQRTCDASPPWALWGRGPAIGGQWRGFWEASSRGGGAFSGGEDASEGGAEEGAGGAGGSAGAGEGPVITALTPMTIPDVFPHLPLIAITRNPVFPRFIKIIEVKNKKLVELLRRKVRLAQPYVGVFLKRDDSNESDVVESLDEIYHTGTFAQIHEMQDLGDKLRMIVMGHRRVHISRQLEVEPEEPEAENKHKPRRKSKRGKKEAEDELSARHPAELAMEPTPELPAEVLMVEVENVVHEDFQVTEEVKALTAEIVKTIRDIIALNPLYRESVLQMMQAGQRVVDNPIYLSDMGAALTGAESHELQDVLEETNIPKRLYKALSLLKKEFELSKLQQRLGREVEEKIKQTHRKYLLQEQLKIIKKELGLEKDDKDAIEEKFRERLKELVVPKHVMDVVDEELSKLGLLDNHSSEFNVTRNYLDWLTSIPWGKYSNENLDLARAQAVLEEDHYGMEDVKKRILEFIAVSQLRGSTQGKILCFYGPPGVGKTSIARSIARALNREYFRFSVGGMTDVAEIKGHRRTYVGAMPGKIIQCLKKTKTENPLILIDEVDKIGRGYQGDPSSALLELLDPEQNANFLDHYLDVPVDLSKVLFICTANVTDTIPEPLRDRMEMINVSGYVAQEKLAIAERYLVPQARALCGLDESKAKLSSDVLTLLIKQYCRESGVRNLQKQVEKVLRKSAYKIVSGEAESVEVTPENLQDFVGKPVFTVERMYDVTPPGVVMGLAWTAMGGSTLFVETSLRRPQDKDAKGDKDGSLEVTGQLGEVMKESARIAYTFARAFLMQHAPANDYLVTSHIHLHVPEGATPKDGPSAGCTIVTALLSLAMGRPVRQNLAMTGEVSLTGKILPVGGIKEKTIAAKRAGVTCIVLPAENKKDFYDLAAFITEGLEVHFVEHYREIFDIAFPDEQAEALAVER
partner: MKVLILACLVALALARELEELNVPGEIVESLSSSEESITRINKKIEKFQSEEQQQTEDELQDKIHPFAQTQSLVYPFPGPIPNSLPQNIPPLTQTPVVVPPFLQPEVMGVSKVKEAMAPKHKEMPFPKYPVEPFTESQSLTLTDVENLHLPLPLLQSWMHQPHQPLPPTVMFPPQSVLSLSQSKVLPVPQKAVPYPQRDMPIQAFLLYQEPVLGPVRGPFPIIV

Variants of: B1
Details: with casb_bovin CSN2, P02666
For G894P, the “effect of a mutation on the interaction” value was “decreasing interaction”.

Variants of: B1
Details: with casb_bovin CSN2, P02666
Remark: another data set of the same source
For G893A;G894P, the “effect of a mutation on the interaction” value was “decreasing interaction”.

Variants of: B1
Details: with casb_bovin CSN2, P02666
Remark: another data set of the same source
With W770P the “effect of a mutation on the interaction” value was “decreasing interaction”.

Variants of: B1
Details: with casb_bovin CSN2, P02666
Remark: another data set of the same source
G893P was tested, and the “effect of a mutation on the interaction” value was “decreasing interaction”.

Variants of: B1
Details: with casb_bovin CSN2, P02666
Remark: another data set of the same source
G893P;G894A was tested, and the “effect of a mutation on the interaction” value was “decreasing interaction”.

Variants of: B1
Details: with casb_bovin CSN2, P02666
Remark: another data set of the same source
K529R was tested, and the “effect of a mutation on the interaction” value was “decreasing interaction”.
